Measurements: patent publication US20240277865A1 (ACADEMIA SINICA, published 2024)

How the values were obtained:
[1] = biological target: MSLN expressed on the cell surface of human cancer cell lines N87 and H226 (human, UniProt Q13421 37-598); experiment: cell-based or functional assay
mesothelin (MSLN) [2] = biological target: T1, mesothelin (MSLN) (UniProt Q13421 296-580); experiment: ELISA, MSLN coated on plate, IgG1 detected with anti-human IgG HRP
T1 construct: also called immobilized MSLN

mesothelin (MSLN) [3] = biological target: T1, mesothelin (MSLN); experiment: ELISA, MSLN coated on plate, IgG1-vcMMAE detected with anti-human IgG HRP

T1 sequence (Q13421 other isoform, or with tags, fused parts or gaps limits assumed): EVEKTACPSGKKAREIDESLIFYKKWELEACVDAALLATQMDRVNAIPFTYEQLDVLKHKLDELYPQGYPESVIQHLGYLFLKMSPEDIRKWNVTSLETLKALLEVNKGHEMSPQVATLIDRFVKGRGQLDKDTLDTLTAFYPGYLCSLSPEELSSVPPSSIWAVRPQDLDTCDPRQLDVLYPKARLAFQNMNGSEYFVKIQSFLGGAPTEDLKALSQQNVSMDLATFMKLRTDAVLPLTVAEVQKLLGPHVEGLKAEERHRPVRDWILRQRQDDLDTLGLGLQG

Binder	IgG1-AL1-PE38KDEL IC50 (nM), cell viability of N87 cells [1] [nM]	EC50 (mesothelin (MSLN) [2]) [ng/mL]	EC50 (mesothelin (MSLN) [3]) [ng/mL]	IgG1-vcMMAE IC50 (nM), cell viability of N87 cells [1] [nM]
CHS5 IgG (antibody, V domains shown, also called IgG1-CHS5) VH: EVQLVESGGGLVQPGGSLRLSCAASGFTITDRTIHWVRQAPGKGLEWVASIFPTKGVTTYADSVKGRFTISADTSKNTAYLQMNSLRAEDTAVYYCARGRYWMDYWGQGTLVTVSS VL: DIQMTQSPSSLSASVGDRVTITCRASQDVKEGVAWYQQKPGKAPKLLIDQSHRLYSGVPSRFSGSGSGTDFTLTISSLQPEDFATYYCQQYYAWPSTFGQGTKVEIKR	0.06	4.67		
CHS7-vcMMAE (antibody, V domains shown, also called CHS7 IgG1-vcMMAE) VH: EVQLVESGGGLVQPGGSLRLSCAASGFTIDKEAIHWVRQAPGKGLEWVASIYPHSGFTLYADSVKGRFTISADTSKNTAYLQMNSLRAEDTAVYYCARGRYWMDYWGQGTLVTVSS VL: DIQMTQSPSSLSASVGDRVTITCRASQDVEDGVAWYQQKPGKAPKLLIGIKDLLYSGVPSRFSGSGSGTDFTLTISSLQPEDFATYYCQQYYRWPSTFGQGTKVEIKR			16.3	25.9
ALA12 IgG (antibody, V domains shown) VH: EVQLVESGGGLVQPGGSLRLSCAASGFTIGNWTIHWVRQAPGKGLEWVALIWPESGATLYADSVKGRFTISADTSKNTAYLQMNSLRAEDTAVYYCARGRYWMDYWGQGTLVTVSS VL: DIQMTQSPSSLSASVGDRVTITCRASQDVRDGVAWYQQKPGKAPKLLIDQMVRLYSGVPSRFSGSGSGTDFTLTISSLQPEDFATYYCQQYFNWPVTFGQGTKVEIKR	0.1	8.37		
CHS8-vcMMAE (antibody, V domains shown, also called CHS8 IgG1-vcMMAE) VH: EVQLVESGGGLVQPGGSLRLSCAASGFTISKASIHWVRQAPGKGLEWVASIWPTKGFTTYADSVKGRFTISADTSKNTAYLQMNSLRAEDTAVYYCARGRYWLDYWGQGTLVTVSS VL: DIQMTQSPSSLSASVGDRVTITCRASQDVKEGVAWYQQKPGKAPKLLIDERERLYSGVPSRFSGSGSGTDFTLTISSLQPEDFATYYCQQYNTWPATFGQGTKVEIKR			9.26	24.6
CHS7 IgG (antibody, V domains shown) VH: EVQLVESGGGLVQPGGSLRLSCAASGFTIDKEAIHWVRQAPGKGLEWVASIYPHSGFTLYADSVKGRFTISADTSKNTAYLQMNSLRAEDTAVYYCARGRYWMDYWGQGTLVTVSS VL: DIQMTQSPSSLSASVGDRVTITCRASQDVEDGVAWYQQKPGKAPKLLIGIKDLLYSGVPSRFSGSGSGTDFTLTISSLQPEDFATYYCQQYYRWPSTFGQGTKVEIKR	0.06	10.3		
CHS5-vcMMAE (antibody, V domains shown, also called CHS5 IgG1-vcMMAE) VH: EVQLVESGGGLVQPGGSLRLSCAASGFTITDRTIHWVRQAPGKGLEWVASIFPTKGVTTYADSVKGRFTISADTSKNTAYLQMNSLRAEDTAVYYCARGRYWMDYWGQGTLVTVSS VL: DIQMTQSPSSLSASVGDRVTITCRASQDVKEGVAWYQQKPGKAPKLLIDQSHRLYSGVPSRFSGSGSGTDFTLTISSLQPEDFATYYCQQYYAWPSTFGQGTKVEIKR			9.56	15
ALA12-vcMMAE (antibody, V domains shown, also called ALA12 IgG1-vcMMAE) VH: EVQLVESGGGLVQPGGSLRLSCAASGFTIGNWTIHWVRQAPGKGLEWVALIWPESGATLYADSVKGRFTISADTSKNTAYLQMNSLRAEDTAVYYCARGRYWMDYWGQGTLVTVSS VL: DIQMTQSPSSLSASVGDRVTITCRASQDVRDGVAWYQQKPGKAPKLLIDQMVRLYSGVPSRFSGSGSGTDFTLTISSLQPEDFATYYCQQYFNWPVTFGQGTKVEIKR			10.5	39.9
CHS8 IgG (antibody, V domains shown) VH: EVQLVESGGGLVQPGGSLRLSCAASGFTISKASIHWVRQAPGKGLEWVASIWPTKGFTTYADSVKGRFTISADTSKNTAYLQMNSLRAEDTAVYYCARGRYWLDYWGQGTLVTVSS VL: DIQMTQSPSSLSASVGDRVTITCRASQDVKEGVAWYQQKPGKAPKLLIDERERLYSGVPSRFSGSGSGTDFTLTISSLQPEDFATYYCQQYNTWPATFGQGTKVEIKR	0.01	5.05		
